Measured values: article PMC2857461 (The EMBO Journal, 2010)

Columns and labels:
[1] = target: the molecule itself; experiment: AUC
[2] = target: the molecule itself; experiment: cross-linking

B1: His‐CT2 (domain or fragment, human, UniProt Q13563 680-968, looked up)
chain: INDTYSEVKSDLAQQKAEMELSDLIRKGYHKALVKLKLKKNTVDDISESLRQGGGKLNFDELRQDLKGKGHTDAEIEAIFTKYDQDGDQELTEHEHQQMRDDLEKEREDLDLDHSSLPRPMSSRSFPRSLDDSEEDDDEDSGHSSRRRGSISSGVSYEEFQVLVRRVDRMEHSIGSIVSKIDAVIVKLEIMERAKLKRREVLGRLLDGVAEDERLGRDSEIHREQMERLVREELERWESDDAASQISHGLGTPVGLNGQPRPRSSRPSSSQSTEGMEGAGGNGSSNVHV
stoichiometry N [1]: 2
stoichiometry N [2]: 4
